For assay [1], the target named is T1, PD1 expressed on HEK293F cells (UniProt Q15116 25-288, limits assumed).
T1 construct: whole, on cells; also called HEK293F expressing PD1; HKE293F expressing PD1
Briefly: flow cytometry binding, receptor occupancy (0 to 1) on HEK293F cells expressing PD1 against Antibody (nM). A general note: Flow cytometry measures light scatter and fluorescence of single cells or particles in a stream.

Assay [2] deals with T2, human Trop2 (human, UniProt P09758 27-274, limits assumed).
T2 sequence (looked up): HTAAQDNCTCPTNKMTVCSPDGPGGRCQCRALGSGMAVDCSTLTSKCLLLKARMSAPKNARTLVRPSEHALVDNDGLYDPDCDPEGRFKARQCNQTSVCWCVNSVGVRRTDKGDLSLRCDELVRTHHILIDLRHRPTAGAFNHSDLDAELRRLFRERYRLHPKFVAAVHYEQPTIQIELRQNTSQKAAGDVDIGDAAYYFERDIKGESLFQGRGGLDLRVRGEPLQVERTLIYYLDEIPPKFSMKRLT
Briefly: absorbance assay (Net absorbance, Abs 450) on 'Trop2-hFc'; one unprinted antibody concentration.

Assay [3] concerns the target T2, human Trop2. Kind of assay: Octet (BLI). (Biolayer interferometry detects binding as a change in optical thickness at a sensor tip.)
The target in assay [4] is T3, Trop2 on cells (Trop2-positive SW480 cells; Trop2-expressing HEK293 cells) (UniProt P09758 27-323, limits assumed).
T3 construct: whole, on cells
T3 sequence (looked up): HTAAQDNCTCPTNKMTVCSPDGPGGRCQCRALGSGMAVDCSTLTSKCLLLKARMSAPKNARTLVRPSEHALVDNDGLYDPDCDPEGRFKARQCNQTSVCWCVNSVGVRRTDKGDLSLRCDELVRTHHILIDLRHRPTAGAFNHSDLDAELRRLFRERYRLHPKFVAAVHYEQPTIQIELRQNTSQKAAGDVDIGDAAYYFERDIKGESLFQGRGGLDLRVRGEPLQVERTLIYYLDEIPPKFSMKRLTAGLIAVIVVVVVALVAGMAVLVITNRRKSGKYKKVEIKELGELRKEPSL
Briefly: receptor occupancy (%) on Trop2-positive SW480 cells against ARB203 (nM).

For assay [5], the target named is human CD3 (human). Kind of assay: receptor occupancy (Percentage) on PBMC against ARB203 (nM); the legend speaks of occupancy on T cells, the CD3 arm of ARB203.
Chain of human CD3 (human) (chain, as listed by the source): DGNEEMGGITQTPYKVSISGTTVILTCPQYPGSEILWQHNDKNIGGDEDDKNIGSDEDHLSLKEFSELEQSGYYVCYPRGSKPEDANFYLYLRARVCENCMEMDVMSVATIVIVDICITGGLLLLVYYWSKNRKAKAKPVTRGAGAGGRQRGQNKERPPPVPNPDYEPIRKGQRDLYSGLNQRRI
Assay [6] concerns the target T3, Trop2 on cells (Trop2-positive SW480 …). Kind of assay: receptor occupancy (Percentage) on DLD1/DLD1-2C7 cancer cells against ARB203 (nM); Trop2 arm of ARB203.
Assay [7] addresses human CD3 (human). Briefly: Octet sensorgrams (nm against time), panel 'Human CD3', association to about 900 s, dissociation to 1800 s.
The target in the next assay is T4, monkey CD3 (monkey).
T4 chain: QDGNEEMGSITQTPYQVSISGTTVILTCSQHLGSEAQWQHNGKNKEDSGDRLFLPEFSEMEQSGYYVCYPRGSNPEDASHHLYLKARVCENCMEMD
Briefly: Octet sensorgrams (nm against time), panel 'Cynomolgus CD3', association to about 900 s, dissociation to 1800 s.

T1 sequence (Q15116 25-288 limits assumed): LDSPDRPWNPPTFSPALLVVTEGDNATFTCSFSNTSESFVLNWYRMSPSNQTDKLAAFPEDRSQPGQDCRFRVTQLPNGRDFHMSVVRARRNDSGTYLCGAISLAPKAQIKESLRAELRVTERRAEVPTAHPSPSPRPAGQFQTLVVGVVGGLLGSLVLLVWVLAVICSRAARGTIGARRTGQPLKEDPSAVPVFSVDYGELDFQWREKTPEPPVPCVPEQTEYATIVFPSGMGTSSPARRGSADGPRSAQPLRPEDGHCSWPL

B1: ARB204, CDH17-PD1 bispecific antibody (anti-CDH17 10C12 Fab, anti-PD1 1C8 scFv) (bispecific antibody, human IgG1, kappa)
heavy: EVQLVESGGGLVQPGGSLRLSCAASGFTFSSYAMSWVRQTPGKGLEWVAVIDSNGGSTYYPDTVKDRFTISRDNSKNTLYLQMNSLRAEDTAVYYCSSYTNLGAYWGQGTLVTVSAASTKGPSVFPLAPSSKSTSGGTAALGCLVKDYFPEPVTVSWNSGALTSGVHTFPAVLQSSGLYSLSSVVTVPSSSLGTQTYICNVNHKPSNTKVDKRVEPKSCDKTHTCPPCPAPELLGGPSVFLFPPKPKDTLMISRTPEVTCVVVDVSQEDPEVQFNWYVDGVEVHNAKTKPREEQFNSTYRVVSVLTVLHQDWLNGKEYKCKVSNKGLPSSIEKTISKAKGQPREPQVYTLPPSQEEMTKNQVSLTCLVKGFYPSDIAVEWESNGQPENNYKTTPPVLDSDGSFFLYSRLTVDKSRWQEGNVFSCSVMHEALHNHYTQKSLSLSLGKPAGGGGSEVQLVESGGGLVQPGGSLRLSCAASGFTFSRSTMSWVRQAPGKGLEWVATISGGGLNTYFPDSVKGRFTISRDNSKNTLYLQMNSLRAEDTAVYYCTRNSNSYYFALDYWGQGTLVTVSSGGGGSGGGGSGGGGSEIVLTQSPATLSLSPGERATLSCRASESVDNSGVSFMNWYQQKPGQAPRLLIYIASNQVSGIPARFSGSGSGTDFTLTISSLEPEDFAVYYCQQIKEVPWTFGGGTKVEIK
light: DIQMTQSPSSLSASVGDRVTITCRASQDISGYLNWLQQKPGGAIKRLIYTTSTLDSGVPKRFSGSGSGTDFTLTISSLQSEDFATYYCLQYASSPFTFGGGTKVEIKRTVAAPSVFIFPPSDEQLKSGTASVVCLLNNFYPREAKVQWKVDNALQSGNSQESVTEQDSKDSTYSLSSTLTLSKADYEKHKVYACEVTHQGLSSPVTKSFNRGEC
notes: IgG4 Fc with IgG1 hinge, bivalent to each target
On to B1, for which a half-maximal response in assay [1] (EC50) required 0.217 nM.

B2: ARB203-h3G8 v1 (bispecific antibody)
heavy: EVQLVESGGGLVQPGGSLRLSCAASGFTFSTYTMSWVRQTPAKGLVWVSTINSDGYNIYYSDSMKGRFTISRDNAKYTLYLQMNSLRAEDTAMYYCARCSYYSYDYFDYWGQGTLVTVSSASTKGPSVFPLAPSSKSTSGGTAALGCLVKDYFPEPVTVSWNSGALTSGVHTFPAVLQSSGLYSLSSVVTVPSSSLGTQTYICNVNHKPSNTKVDKRVEPKSCDKTHTCPPCPAPELLGGPSVFLFPPKPKDTLMISRTPEVTCVVVDVSQEDPEVQFNWYVDGVEVHNAKTKPREEQFNSTYRVVSVLTVLHQDWLNGKEYKCKVSNKGLPSSIEKTISKAKGQPREPQVYTLPPSQEEMTKNQVSLTCLVKGFYPSDIAVEWESNGQPENNYKTTPPVLDSDGSFFLYSRLTVDKSRWQEGNVFSCSVMHEALHNHYTQKSLSLSLGKPAGGGGSQVQLVQSGAEVKKPGASVKVSCKASGYTFTSYYMHWVRQAPGQGLEWMGWIYPENVNTNYAQKFQGRVTMTRDTSISTAYMELSRLRSDDTAVYYCARDSYGSYFFDYWGQGTLVTVSSGGGGSGGGGSGGGGSDIVMTQSPDSLAVSLGERATINCKSSQSLLNSRTRKNYLAWYQQKPGQPPKLLIYWASTRESGVPDRFSGSGSGTDFTLTISSLQAEDVAVYYCTQSFILRTFGQGTKVEIK
light: DIQMTQSPSSLSASVGDRVTITCRASENIDNYLAWYQQKQGKVPKLLIYAATNLADGMPSRFSGSGSGTDFTLTISSLQPEDVATYYCQHYYSNQLTFGQGTKLEIKRTVAAPSVFIFPPSDEQLKSGTASVVCLLNNFYPREAKVQWKVDNALQSGNSQESVTEQDSKDSTYSLSSTLTLSKADYEKHKVYACEVTHQGLSSPVTKSFNRGEC
notes: also called h8B5-h3G8 V1; h8B5-h3G8v1
With B2, the binding result in the assay with human Trop2 [2] is given as “binds”.

B3: ARB203, bispecific antibody of anti-Trop2 (h8B5) and anti-CD3 (UCHT1) (bispecific antibody, human IgG1, kappa)
heavy: EVQLVESGGGLVQPGGSLRLSCAASGFTFSTYTMSWVRQTPAKGLVWVSTINSDGYNIYYSDSMKGRFTISRDNAKYTLYLQMNSLRAEDTAMYYCARCSYYSYDYFDYWGQGTLVTVSSASTKGPSVFPLAPSSKSTSGGTAALGCLVKDYFPEPVTVSWNSGALTSGVHTFPAVLQSSGLYSLSSVVTVPSSSLGTQTYICNVNHKPSNTKVDKRVEPKSCDKTHTCPPCPAPELLGGPSVFLFPPKPKDTLMISRTPEVTCVVVDVSQEDPEVQFNWYVDGVEVHNAKTKPREEQFNSTYRVVSVLTVLHQDWLNGKEYKCKVSNKGLPSSIEKTISKAKGQPREPQVYTLPPSQEEMTKNQVSLTCLVKGFYPSDIAVEWESNGQPENNYKTTPPVLDSDGSFFLYSRLTVDKSRWQEGNVFSCSVMHEALHNHYTQKSLSLSLGKPAGGGGSEVQLVESGGGLVQPGGSLRLSCAASGYSFTGYTMNWVRQAPGKGLEWVALINPYKGVSTYNQKFKDRFTISVDKSKNTAYLQMNSLRAEDTAVYYCARSGYYGDSDWYFDVWGQGTLVTVSSGGGGSGGGGSGGGGSDIQMTQSPSSLSASVGDRVTITCRASQDIRNYLNWYQQKPGKAPKLLIYYTSRLESGVPSRFSGSGSGTDYTLTISSLQPEDFATYYCQQGNTLPWTFGQGTKVEIK
light: B2 light
notes: IgG4 Fc with IgG1 hinge; Bivalent Fab to Trop2 and bivalent scFv to CD3 at the heavy chain C-terminus
Regarding B3, the Kd (usually the equilibrium constant for the complex coming apart) with human Trop2 [3] was no more than 1 pM. For the same molecule, the EC50 (commonly the concentration needed to bring the measured effect to its halfway point) in assay [4] is 0.155 nM; with human CD3 [5], 20.9 nM. Further, the EC50 (read off the curve) – broadly, the midpoint of the concentration-response curve – in assay [6] was roughly 0.4 nM.

B4: h8B5-h3G8v2, bispecific anti-Trop2 (h8B5) / anti-CD3 (h3G8 scFv V2, VL-VH with 3xGS linker) (bispecific antibody, human IgG1, kappa)
heavy: EVQLVESGGGLVQPGGSLRLSCAASGFTFSTYTMSWVRQTPAKGLVWVSTINSDGYNIYYSDSMKGRFTISRDNAKYTLYLQMNSLRAEDTAMYYCARCSYYSYDYFDYWGQGTLVTVSSASTKGPSVFPLAPSSKSTSGGTAALGCLVKDYFPEPVTVSWNSGALTSGVHTFPAVLQSSGLYSLSSVVTVPSSSLGTQTYICNVNHKPSNTKVDKRVEPKSCDKTHTCPPCPAPELLGGPSVFLFPPKPKDTLMISRTPEVTCVVVDVSQEDPEVQFNWYVDGVEVHNAKTKPREEQFNSTYRVVSVLTVLHQDWLNGKEYKCKVSNKGLPSSIEKTISKAKGQPREPQVYTLPPSQEEMTKNQVSLTCLVKGFYPSDIAVEWESNGQPENNYKTTPPVLDSDGSFFLYSRLTVDKSRWQEGNVFSCSVMHEALHNHYTQKSLSLSLGKPAGGGGSDIVMTQSPDSLAVSLGERATINCKSSQSLLNSRTRKNYLAWYQQKPGQPPKLLIYWASTRESGVPDRFSGSGSGTDFTLTISSLQAEDVAVYYCTQSFILRTFGQGTKVEIKGGGGSGGGGSGGGGSQVQLVQSGAEVKKPGASVKVSCKASGYTFTSYYMHWVRQAPGQGLEWMGWIYPENVNTNYAQKFQGRVTMTRDTSISTAYMELSRLRSDDTAVYYCARDSYGSYFFDYWGQGTLVTVSS
light: B2 light
notes: IgG4 Fc with IgG1 hinge, scFv at the heavy chain C-terminus
In the case of B4, the dissociation constant Kd worked out at 3.7 nM with human CD3 [7] and 0.802 nM with monkey CD3.

(Values after patent publication US20250034273A1 (ARBELE, published 2025).)
